Test results: article PMC9482650, “Quantitative fragmentomics allow affinity mapping of interactomes” (Nature Communications, 2022)

T1: MPDZ_10, O75970
T1 sequence (O75970 1624-1722, limits assumed, looked up): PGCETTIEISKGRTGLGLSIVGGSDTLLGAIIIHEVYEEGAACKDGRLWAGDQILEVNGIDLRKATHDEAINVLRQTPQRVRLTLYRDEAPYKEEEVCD

T2: PCLO, Q9Y6V0
T2 sequence (Q9Y6V0 4491-4600, limits assumed, looked up): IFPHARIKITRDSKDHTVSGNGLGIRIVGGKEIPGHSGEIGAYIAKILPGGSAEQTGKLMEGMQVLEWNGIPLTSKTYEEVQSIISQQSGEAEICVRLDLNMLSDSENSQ

T3: APBA2_2, Q99767
T3 sequence (Q99767 654-744, limits assumed, looked up): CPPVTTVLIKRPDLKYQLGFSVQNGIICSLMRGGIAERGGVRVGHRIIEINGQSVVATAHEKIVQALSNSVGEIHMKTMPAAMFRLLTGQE

T4: HTRA4, P83105
T4 sequence (P83105 378-476, limits assumed, looked up): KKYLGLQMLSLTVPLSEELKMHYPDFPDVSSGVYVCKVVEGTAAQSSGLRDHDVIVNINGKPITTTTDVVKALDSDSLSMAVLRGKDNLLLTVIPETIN

T5: DFNB31_2, Q9P202
T5 sequence (Q9P202 274-371, limits assumed, looked up): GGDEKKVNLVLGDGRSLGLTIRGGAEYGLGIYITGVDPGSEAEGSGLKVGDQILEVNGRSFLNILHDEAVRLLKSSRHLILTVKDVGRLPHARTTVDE

T6: TX1BP3, O14907
T6 sequence (O14907 10-122, limits assumed, looked up): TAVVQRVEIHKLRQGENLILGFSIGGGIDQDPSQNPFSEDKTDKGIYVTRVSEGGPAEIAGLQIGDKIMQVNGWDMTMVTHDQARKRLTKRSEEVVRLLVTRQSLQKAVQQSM

T7: NHERF3_4, Q5T2W1
T7 sequence (Q5T2W1 373-468, limits assumed, looked up): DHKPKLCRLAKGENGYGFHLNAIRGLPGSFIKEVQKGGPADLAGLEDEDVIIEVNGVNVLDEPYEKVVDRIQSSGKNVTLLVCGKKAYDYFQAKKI

T8: LIN7A, O14910
T8 sequence (O14910 103-200, limits assumed, looked up): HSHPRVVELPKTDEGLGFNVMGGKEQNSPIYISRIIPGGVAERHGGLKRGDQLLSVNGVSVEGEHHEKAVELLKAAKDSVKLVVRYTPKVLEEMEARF

T9: LNX2_2, Q8N448
T9 sequence (Q8N448 334-432, limits assumed, looked up): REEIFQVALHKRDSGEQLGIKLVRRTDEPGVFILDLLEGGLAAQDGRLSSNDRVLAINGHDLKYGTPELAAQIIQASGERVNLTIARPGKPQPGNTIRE

T10: RADIL, Q96JH8
T10 sequence (Q96JH8 971-1071, limits assumed, looked up): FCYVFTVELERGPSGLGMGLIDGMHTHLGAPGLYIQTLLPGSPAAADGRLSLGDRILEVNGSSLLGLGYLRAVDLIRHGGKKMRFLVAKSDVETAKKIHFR

T11: GRIP1_7, Q9Y3R0
T11 sequence (Q9Y3R0 999-1096, limits assumed, looked up): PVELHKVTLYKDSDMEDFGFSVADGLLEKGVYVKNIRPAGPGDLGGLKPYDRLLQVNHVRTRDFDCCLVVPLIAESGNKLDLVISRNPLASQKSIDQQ

T12: MPP2, Q14168
T12 sequence (Q14168 180-250, limits assumed, looked up): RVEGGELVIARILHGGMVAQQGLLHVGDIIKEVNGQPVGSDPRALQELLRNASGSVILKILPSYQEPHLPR


Assays:
Assay in all cases: holdup assay
Parameters in all cases: key: below the threshold = too weak to quantify, mostly under pKd 3.1 to 4
Details in all cases: plain residues with an end cap or a label only (N-terminal biotin on a linker: ado-ado)
MAGI1_2, Q96QZ7 = target: MAGI1_2, Q96QZ7
FRMPD2_3, Q68DX3 = target: FRMPD2_3, Q68DX3
MPDZ_10, O75970 = target: T1, MPDZ_10, O75970
PCLO, Q9Y6V0 = target: T2, PCLO, Q9Y6V0
APBA2_2, Q99767 = target: T3, APBA2_2, Q99767
Inadl_8, Q8NI35 = target: Inadl_8, Q8NI35
IL16_3, Q14005 = target: IL16_3, Q14005
FRMPD2_2, Q68DX3 = target: FRMPD2_2, Q68DX3
HTRA4, P83105 = target: T4, HTRA4, P83105
MAGI1_1, Q96QZ7 = target: MAGI1_1, Q96QZ7
ARHGEF12, Q9NZN5-2 = target: ARHGEF12, Q9NZN5-2
DFNB31_2, Q9P202 = target: T5, DFNB31_2, Q9P202
TX1BP3, O14907 = target: T6, TX1BP3, O14907
LNX1_3, Q8TBB1 = target: LNX1_3, Q8TBB1
MAGI3_2, Q5TCQ9 = target: MAGI3_2, Q5TCQ9
Inadl_5, Q8NI35 = target: Inadl_5, Q8NI35
NHERF3_4, Q5T2W1 = target: T7, NHERF3_4, Q5T2W1
Inadl_10, Q8NI35 = target: Inadl_10, Q8NI35
LIN7A, O14910 = target: T8, LIN7A, O14910
LNX2_2, Q8N448 = target: T9, LNX2_2, Q8N448
RADIL, Q96JH8 = target: T10, RADIL, Q96JH8
GRIP1_7, Q9Y3R0 = target: T11, GRIP1_7, Q9Y3R0
TJP1_2, Q07157 = target: TJP1_2, Q07157
Inadl_9, Q8NI35 = target: Inadl_9, Q8NI35
TJP2_1, Q9UDY2 = target: TJP2_1, Q9UDY2
MPP2, Q14168 = target: T12, MPP2, Q14168

TJP2_1, Q9UDY2, sequence (Q9UDY2 24-128): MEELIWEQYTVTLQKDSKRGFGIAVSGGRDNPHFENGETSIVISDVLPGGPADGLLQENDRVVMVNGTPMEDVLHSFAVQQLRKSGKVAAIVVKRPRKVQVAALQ
MAGI3_2, Q5TCQ9, sequence (Q5TCQ9 398-503): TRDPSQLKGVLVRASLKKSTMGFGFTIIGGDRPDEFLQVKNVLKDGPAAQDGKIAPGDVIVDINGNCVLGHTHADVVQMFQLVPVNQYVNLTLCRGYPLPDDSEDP
MAGI1_1, Q96QZ7, sequence (Q96QZ7 1-106): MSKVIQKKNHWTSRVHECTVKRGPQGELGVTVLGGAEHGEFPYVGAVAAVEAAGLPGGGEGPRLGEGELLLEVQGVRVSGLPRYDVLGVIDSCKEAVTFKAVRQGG
TJP1_2, Q07157, sequence (Q07157 181-274): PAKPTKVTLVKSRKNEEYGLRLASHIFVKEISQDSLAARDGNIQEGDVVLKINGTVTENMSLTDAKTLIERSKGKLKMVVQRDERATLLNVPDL
ARHGEF12, Q9NZN5-2, sequence (Q9NZN5 other isoform, or with tags, fused parts or gaps): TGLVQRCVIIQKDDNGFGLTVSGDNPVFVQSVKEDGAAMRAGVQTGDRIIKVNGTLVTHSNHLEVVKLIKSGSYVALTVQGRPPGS
LNX1_3, Q8TBB1, sequence (Q8TBB1 500-596): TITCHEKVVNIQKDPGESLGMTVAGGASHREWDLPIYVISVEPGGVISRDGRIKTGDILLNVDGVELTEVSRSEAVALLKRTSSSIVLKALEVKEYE
MAGI1_2, Q96QZ7, sequence (Q96QZ7 456-580): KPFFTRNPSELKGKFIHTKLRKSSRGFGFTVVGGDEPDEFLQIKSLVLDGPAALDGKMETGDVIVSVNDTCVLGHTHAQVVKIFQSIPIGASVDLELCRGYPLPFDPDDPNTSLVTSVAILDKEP
FRMPD2_3, Q68DX3, sequence (Q68DX3 1073-1166): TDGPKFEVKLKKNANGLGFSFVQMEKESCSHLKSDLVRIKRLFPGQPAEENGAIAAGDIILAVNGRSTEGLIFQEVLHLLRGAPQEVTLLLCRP
Inadl_5, Q8NI35, sequence (Q8NI35 673-780): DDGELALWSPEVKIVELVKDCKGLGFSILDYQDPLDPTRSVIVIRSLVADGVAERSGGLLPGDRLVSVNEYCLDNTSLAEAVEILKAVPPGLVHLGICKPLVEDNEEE
FRMPD2_2, Q68DX3, sequence (Q68DX3 944-1038): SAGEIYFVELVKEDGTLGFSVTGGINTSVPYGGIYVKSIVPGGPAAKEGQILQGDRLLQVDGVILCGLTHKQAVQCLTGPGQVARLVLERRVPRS
Inadl_9, Q8NI35, sequence (Q8NI35 1530-1615): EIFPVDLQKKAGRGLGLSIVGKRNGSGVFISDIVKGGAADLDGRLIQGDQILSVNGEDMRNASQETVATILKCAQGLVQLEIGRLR
Inadl_8, Q8NI35, sequence (Q8NI35 1425-1530): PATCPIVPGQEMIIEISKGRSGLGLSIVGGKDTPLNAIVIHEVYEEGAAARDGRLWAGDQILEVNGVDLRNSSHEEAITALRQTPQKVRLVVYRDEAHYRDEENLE
Inadl_10, Q8NI35, sequence (Q8NI35 1673-1763): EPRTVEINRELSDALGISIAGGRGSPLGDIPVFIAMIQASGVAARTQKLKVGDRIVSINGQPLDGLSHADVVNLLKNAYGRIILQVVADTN
IL16_3, Q14005, sequence (Q14005 1107-1207): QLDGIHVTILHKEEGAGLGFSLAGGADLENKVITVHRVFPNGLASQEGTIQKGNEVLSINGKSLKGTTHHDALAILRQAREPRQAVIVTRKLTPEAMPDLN

Binder | pKd (MAGI1_2, Q96QZ7) | pKd (FRMPD2_3, Q68DX3) | pKd (MPDZ_10, O75970) | pKd (PCLO, Q9Y6V0) | pKd (APBA2_2, Q99767) | pKd (Inadl_8, Q8NI35) | pKd (IL16_3, Q14005) | pKd (FRMPD2_2, Q68DX3) | pKd (HTRA4, P83105) | pKd (MAGI1_1, Q96QZ7) | pKd (ARHGEF12, Q9NZN5-2) | pKd (DFNB31_2, Q9P202) | pKd (TX1BP3, O14907) | pKd (LNX1_3, Q8TBB1) | pKd (MAGI3_2, Q5TCQ9) | pKd (Inadl_5, Q8NI35) | pKd (NHERF3_4, Q5T2W1) | pKd (Inadl_10, Q8NI35) | pKd (LIN7A, O14910) | pKd (LNX2_2, Q8N448) | also measured
QKASRNESTF [POLR1D, P0DPB6] | below the threshold | below the threshold | below the threshold | below the threshold | below the threshold | below the threshold | below the threshold | below the threshold | below the threshold | below the threshold | below the threshold | below the threshold | below the threshold | below the threshold | below the threshold | below the threshold | below the threshold | below the threshold | below the threshold | below the threshold | pKd (RADIL, Q96JH8): below the threshold; pKd (GRIP1_7, Q9Y3R0): below the threshold; pKd (TJP1_2, Q07157): below the threshold; pKd (Inadl_9, Q8NI35): below the threshold; pKd (TJP2_1, Q9UDY2): below the threshold; pKd (MPP2, Q14168): below the threshold
DSEEELPTRL [GRK6, P43250] | below the threshold | 3.53 | below the threshold | below the threshold | below the threshold | below the threshold | below the threshold | below the threshold | 3.92 | below the threshold | 3.57 | below the threshold | below the threshold | below the threshold | below the threshold | below the threshold | 3.79 | below the threshold | below the threshold | below the threshold | pKd (RADIL, Q96JH8): below the threshold; pKd (GRIP1_7, Q9Y3R0): below the threshold; pKd (TJP1_2, Q07157): below the threshold; pKd (Inadl_9, Q8NI35): 3.69; pKd (TJP2_1, Q9UDY2): below the threshold; pKd (MPP2, Q14168): below the threshold
RDYTQSSSSL [GRM5, P41594] | below the threshold | below the threshold | below the threshold | below the threshold | below the threshold | below the threshold | below the threshold | below the threshold | 3.85 | below the threshold | 4.28 | below the threshold | 3.53 | below the threshold | below the threshold | below the threshold | 3.64 | below the threshold | below the threshold | below the threshold | pKd (RADIL, Q96JH8): below the threshold; pKd (GRIP1_7, Q9Y3R0): below the threshold; pKd (TJP1_2, Q07157): below the threshold; pKd (Inadl_9, Q8NI35): below the threshold; pKd (TJP2_1, Q9UDY2): below the threshold; pKd (MPP2, Q14168): below the threshold

Now from value to binder, other results behind:

pKd (MAGI1_2, Q96QZ7) | pKd (FRMPD2_3, Q68DX3) | pKd (MPDZ_10, O75970) | pKd (PCLO, Q9Y6V0) | pKd (APBA2_2, Q99767) | pKd (Inadl_8, Q8NI35) | pKd (IL16_3, Q14005) | pKd (FRMPD2_2, Q68DX3) | pKd (HTRA4, P83105) | pKd (MAGI1_1, Q96QZ7) | pKd (ARHGEF12, Q9NZN5-2) | pKd (DFNB31_2, Q9P202) | pKd (TX1BP3, O14907) | pKd (LNX1_3, Q8TBB1) | pKd (MAGI3_2, Q5TCQ9) | pKd (Inadl_5, Q8NI35) | pKd (NHERF3_4, Q5T2W1) | pKd (Inadl_10, Q8NI35) | pKd (LIN7A, O14910) | pKd (LNX2_2, Q8N448) | Binder | also measured
below the threshold | below the threshold | below the threshold | below the threshold | below the threshold | below the threshold | below the threshold | below the threshold | below the threshold | below the threshold | 3.58 | below the threshold | below the threshold | below the threshold | below the threshold | below the threshold | below the threshold | below the threshold | below the threshold | below the threshold | KEKASTETEC [TRPM1, Q7Z4N2] | pKd (RADIL, Q96JH8): below the threshold; pKd (GRIP1_7, Q9Y3R0): below the threshold; pKd (TJP1_2, Q07157): below the threshold; pKd (Inadl_9, Q8NI35): below the threshold; pKd (TJP2_1, Q9UDY2): below the threshold; pKd (MPP2, Q14168): below the threshold
below the threshold | below the threshold | below the threshold | below the threshold | below the threshold | below the threshold | below the threshold | below the threshold | below the threshold | below the threshold | below the threshold | below the threshold | below the threshold | below the threshold | below the threshold | below the threshold | below the threshold | below the threshold | below the threshold | below the threshold | KPDKQEEFYA [SDC3, O75056] | pKd (RADIL, Q96JH8): below the threshold; pKd (GRIP1_7, Q9Y3R0): below the threshold; pKd (TJP1_2, Q07157): below the threshold; pKd (Inadl_9, Q8NI35): below the threshold; pKd (TJP2_1, Q9UDY2): below the threshold; pKd (MPP2, Q14168): below the threshold
